Source: PMC12675543 (Nature Communications, 2025)

Tests used:
Assay in all cases: SPR; biotinylated p62 constructs or His-MBP immobilised on streptavidin sensor chips (520-700 RU); VHHp62 injected in serial dilution; 50 mM Tris, 150 mM NaCl, 1 mM TCEP, 0.05% Tween-20, pH 7.4, 25 °C; kinetic 1:1 model
Settings in all cases: both partners purified
[1] = target: T1, p62(122-181)-Avi (Homo sapiens, UniProt Q13501, biotinylated)
T1 construct: p62 (SQSTM1), human, ZZ domain, residues 122-181; also called p62ZZ; p62 ZZ domain; source: E. coli BL21 (DE3), purified (IMAC, 3C cleavage, SEC); not shown: His-MBP, N-terminal, cleaved; Avi, C-terminal, kept

[2] = target: T2, p62(387-446)-Avi (Homo sapiens, UniProt Q13501, biotinylated)
T2 construct: p62 (SQSTM1), human, UBA domain, printed as residues 387-446; SPR construct; also called p62UBA; p62 ubiquitin associated domain; source: E. coli BL21 (DE3), purified (IMAC, 3C cleavage, SEC); not shown: His-MBP, N-terminal, cleaved; Avi, C-terminal, kept

[3] = target: T3, His-MBP-avi (Escherichia coli K12 (assumed), UniProt P0AEX9 = MBP, biotinylated)
T3 construct: Control surface protein in SPR; also called His-MBP tag; not shown: His, N-terminal, kept; Avi, C-terminal, kept

[4] = target: T4, His-MBP-p62(85-440)-Avi (Homo sapiens, UniProt Q13501, biotinylated)
T4 construct: also called immunogen; p62 lacking essential parts of the PB1 domain; source: recombinant; not shown: His, N-terminal, kept; MBP, N-terminal, kept; Avi, C-terminal, kept

B1: VHHp62-His (6C10) (VHH)
VHH: EVQLVESGGGLVQPGGSLRLSCVASGFTFSNYWMYWVRQAPGKGLEWVSTINTGSGAAYYTSSVKGRFTISRDNAKNTLYLQMNSLKSEDTAVYYCATDLRGAQRGQGTQVTVSS
notes: anti-p62 VHH from immunised llamas, phage display clone 6C10; the AlphaFold2 model of VHHp62 had 121 residues; also called VHH 6C10; p62 single-domain antibody; source: Pichia pastoris (Komagataella phaffii), secreted, purified (IMAC, desalting); not shown: His, C-terminal, kept
Q: Does B1 bind [1]?
A: Result: no binding

Q: And the Kd [2]?
A: The Kd was 36 nM.

Q: Does B1 bind [3]?
A: Result: no binding

Q: What about the Kd [4] of the same binder?
A: Its Kd is 11 nM.
